The supplement of paper PMC9233669
Variants at the floor of the assay were thinned out.

How the values were obtained:
[1] = test system: biotinyl-Phe-oxazolone; experiment: self-aminoacylation, catalytic enhancement (BFO) (fold over background); higher = more active; k-Seq, kA / k0A0; sequences stand for … in GGGAAUGGAUCCACAUCUACGAAUUC…UUCACUGCAGACUUGACGAAGCUG
Summary of the method: (§1)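 Mutagenized RNA pools with a 21-nt variable region (0.43 μM) reacted with each biotinyl-aminoacyl-oxazolone at 2–1250 μM. Reactions ran in 50 μL HEPES/NaCl/KCl/MgCl2/CaCl2 buffer with 5% acetonitrile, pH 6.9–7.0, for 90 minutes at room temperature. Streptavidin-captured RNA was quantified by triplicate qPCR and Illumina sequencing, and per-sequence fraction reacted was fit to a pseudo-first-order model with 1000 bootstraps. Catalytic enhancement is median kA divided by the uncatalyzed rate, the low-activity peak of a bimodal Gaussian fit.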

[2] = test system: biotinyl-Ile-oxazolone; experiment: self-aminoacylation, catalytic enhancement (BIO) (fold over background); higher = more active; k-Seq, kA / k0A0; sequences stand for … in GGGAAUGGAUCCACAUCUACGAAUUC…UUCACUGCAGACUUGACGAAGCUG
Summary of the method: as §1

[3] = test system: biotinyl-Met-oxazolone; experiment: self-aminoacylation, catalytic enhancement (BMO) (fold over background); higher = more active; k-Seq, kA / k0A0; sequences stand for … in GGGAAUGGAUCCACAUCUACGAAUUC…UUCACUGCAGACUUGACGAAGCUG
Summary of the method: as §1

[4] = test system: biotinyl-Val-oxazolone; experiment: self-aminoacylation, catalytic enhancement (BVO) (fold over background); higher = more active; k-Seq, kA / k0A0; sequences stand for … in GGGAAUGGAUCCACAUCUACGAAUUC…UUCACUGCAGACUUGACGAAGCUG
Summary of the method: as §1

[5] = test system: biotinyl-Leu-oxazolone; experiment: self-aminoacylation, catalytic enhancement (BLO) (fold over background); higher = more active; k-Seq, kA / k0A0; sequences stand for … in GGGAAUGGAUCCACAUCUACGAAUUC…UUCACUGCAGACUUGACGAAGCUG
Summary of the method: as §1

[6] = test system: biotinyl-Trp-oxazolone; experiment: self-aminoacylation, catalytic enhancement (BWO) (fold over background); higher = more active; k-Seq, kA / k0A0; sequences stand for … in GGGAAUGGAUCCACAUCUACGAAUUC…UUCACUGCAGACUUGACGAAGCUG
Summary of the method: as §1

Row | Sequence | self-aminoacylation [1] | self-aminoacylation [2] | self-aminoacylation [3] | self-aminoacylation [4] | self-aminoacylation [5] | self-aminoacylation [6]
1 | AUUCAGCUAGGUCACCGGGUG [Fam2.2 aminoacylation ribozyme variant] | 51.6 | 4.69 | 7.17 | 4.32 | 6.32 | 7.07
2 | AUUCAGCUAGGUCAUCCGGUG [Fam2.2 aminoacylation ribozyme variant] | 44.2 | 5.29 | 6.6 | 5.44 | 8.88 | 8.08
3 | AUUCAGCUAGGUCAUCGGGAG [Fam2.2 aminoacylation ribozyme variant] | 4.09 | 1.72 | 1.61 | 1.68 | 1.69 | 1.32
4 | AUUCAGCUCGGUCAUCGGGUG [Fam2.2 aminoacylation ribozyme variant] | 78.7 | 4.88 | 9.53 | 5.43 | 9.01 | 7.34
5 | AUUCAGCUGGGUCAUCGGGUG [Fam2.2 aminoacylation ribozyme variant] | 37.9 | 3.79 | 5.66 | 4.76 | 5.07 | 4.72
6 | AUUCAUCAAGGUCAUCGGGUG [Fam2.2 aminoacylation ribozyme variant] | 74.7 | 5.94 | 9.84 | 5.94 | 10.9 | 10.2
7 | AUUCAUCUAGAUCAUCGGGUG [Fam2.2 aminoacylation ribozyme variant] | 14.1 | 2.1 | 2.68 | 2.14 | 4.1 | 3.24
8 | AUUCAUCUAGGCCAUCGGGUG [Fam2.2 aminoacylation ribozyme variant] | 19 | 2.39 | 3.38 | 2.84 | 5.22 | 3
9 | AUUCAUCUAGGGCAUCGGGUG [Fam2.2 aminoacylation ribozyme variant] | 21.4 | 2.81 | 3.45 | 2.97 | 4.32 | 2.7
10 | AUUCAUCUAGGUCAUAGGGUG [Fam2.2 aminoacylation ribozyme variant] | 10.1 | 2 | 2.63 | 1.87 | 3.39 | 2.83
11 | AUUCAUCUAGGUCAUCGGGGG [Fam2.2 aminoacylation ribozyme variant] | 5.32 | 1.82 | 2.13 | 1.9 | 2.31 | 2.14
12 | AUUCAUCUAUGUCAUCGGGUG [Fam2.2 aminoacylation ribozyme variant] | 50.7 | 4.09 | 6.63 | 3.8 | 8.74 | 6.27
13 | AUUCAUUUAGGUCAUCGGGUG [Fam2.2 aminoacylation ribozyme variant] | 45.6 | 3.25 | 5.48 | 3.33 | 6.72 | 5.6
14 | AUUCCCCAGGUCAUCGAGUGA [Fam2.1 aminoacylation ribozyme variant] | 21.1 | 3.12 | 4.86 | 3.75 | 4.83 | 6.65
15 | AUUCCCCGGGUCAUCGAGUGA [Fam2.1 aminoacylation ribozyme variant] | 30 | 3.32 | 4.59 | 2.92 | 4.99 | 6.46
16 | AUUCCCCUAGGUCAUCGCGUG [Fam2.2 aminoacylation ribozyme variant] | 826 | 64.1 | 102 | 77.6 | 141 | 99.5
17 | AUUCCCCUAGGUCAUCGGGUG [Fam2.2 aminoacylation ribozyme variant] | 196 | 14.9 | 24.4 | 14.9 | 32.9 | 23.2
18 | AUUCCCCUAGGUCAUUGGGUG [Fam2.2 aminoacylation ribozyme variant] | 92.5 | 7.23 | 10.3 | 7.95 | 15.6 | 11.8
19 | AUUCCCCUAGGUCGUCGGGUG [Fam2.2 aminoacylation ribozyme variant] | 31.9 | 5.97 | 7.13 | 5.97 | 9.19 | 7.42
20 | AUUCCCCUAUGUCAUCGGGUG [Fam2.2 aminoacylation ribozyme variant] | 154 | 12.2 | 19.2 | 10.9 | 23.5 | 18.4
21 | AUUCCCCUGGUCAUCGAGUGC [Fam2.1 aminoacylation ribozyme variant] | 1.33 | 1.36 | 1.35 | 1.64 | 1.63 | 2.07
22 | AUUCCCCUGGUCAUCGAGUGU [Fam2.1 aminoacylation ribozyme variant] | 15.2 | 2.39 | 3.09 | 2.61 | 3.28 | 3.8
23 | AUUCCCCUGGUCAUCGCGUGA [Fam2.1 aminoacylation ribozyme variant] | 213 | 12.2 | 22.1 | 15 | 28.2 | 26.8
24 | AUUCCCCUGGUCAUCGGGUGA [Fam2.1 aminoacylation ribozyme variant] | 106 | 7.79 | 14.1 | 8.68 | 14.4 | 15.6
25 | AUUCCCCUGGUCGUCGAGUGA [Fam2.1 aminoacylation ribozyme variant] | 6.18 | 1.48 | 1.42 | 1.33 | 1.71 | 1.52
26 | AUUCCCCUGGUCUUCGAGUGA [Fam2.1 aminoacylation ribozyme variant] | 64.6 | 5.69 | 9.43 | 5.87 | 9.91 | 11.8

Row | Sequence | self-aminoacylation [1] | self-aminoacylation [2] | self-aminoacylation [3] | self-aminoacylation [4] | self-aminoacylation [5] | self-aminoacylation [6]
27 | AUUCCCCUGGUGAUCGAGUGA [Fam2.1 aminoacylation ribozyme variant] | 36.9 | 3.12 | 5.51 | 3.13 | 5.91 | 6.06
28 | AUUCGCCUAAGUCAUCGGGUG [Fam2.2 aminoacylation ribozyme variant] | 117 | 7.83 | 12.9 | 7.95 | 15.6 | 11.7
29 | AUUCGCCUAGGCCAUCGGGUG [Fam2.2 aminoacylation ribozyme variant] | 35.5 | 3.15 | 4.46 | 4.16 | 5.27 | 4.7
30 | AUUCGCCUAGGGCAUCGGGUG [Fam2.2 aminoacylation ribozyme variant] | 26.1 | 3.24 | 5.3 | 3.45 | 5.64 | 4.92
31 | AUUCGCCUAGGUCAACGGGUG [Fam2.2 aminoacylation ribozyme variant] | 27.8 | 2.76 | 4.66 | 2.72 | 6.03 | 3.75
32 | AUUCGCCUAGGUCAGCGGGUG [Fam2.2 aminoacylation ribozyme variant] | 37.8 | 3.91 | 5.21 | 3.96 | 5.95 | 5.11
33 | AUUCGCCUAGGUCAUCGCGUG [Fam2.2 aminoacylation ribozyme variant] | 126 | 10 | 19.2 | 10.9 | 23.4 | 17.6
34 | AUUCGCCUAGGUCAUCGGCUG [Fam2.2 aminoacylation ribozyme variant] | 6.51 | 2.08 | 1.95 | 2.16 | 2.16 | 2.11
35 | AUUCGCCUAGGUCAUCGGGUU [Fam2.2 aminoacylation ribozyme variant] | 75.6 | 8.6 | 14.1 | 7.13 | 20.5 | 10.8
36 | AUUCGCCUAGGUCGUCGGGUG [Fam2.2 aminoacylation ribozyme variant] | 11.6 | 1.56 | 2.28 | 2.22 | 2.18 | 1.51
37 | AUUCGCCUAGUUCAUCGGGUG [Fam2.2 aminoacylation ribozyme variant] | 16.2 | 2.26 | 2.85 | 2.8 | 3.82 | 3.62
38 | AUUCGCCUUGGUCAUCGGGUG [Fam2.2 aminoacylation ribozyme variant] | 74.5 | 5 | 8.81 | 6.21 | 9.99 | 8.13
39 | AUUCGCGUAGGUCAUCGGGUG [Fam2.2 aminoacylation ribozyme variant] | 57.5 | 5.25 | 8.32 | 4.87 | 8.56 | 7.24
40 | AUUCGUCUAGGUCAUCGGGUG [Fam2.2 aminoacylation ribozyme variant] | 43.2 | 4.9 | 4.96 | 4.85 | 5.27 | 6.11
41 | AUUCUCCUACGUCAUCGGGUG [Fam2.2 aminoacylation ribozyme variant] | 57.3 | 4.89 | 6.97 | 5.36 | 9.67 | 6.69
42 | AUUCUCCUAGAUCAUCGGGUG [Fam2.2 aminoacylation ribozyme variant] | 34.7 | 3.28 | 4.32 | 2.68 | 5.3 | 4.66
43 | AUUCUCCUAGGUCAUCUGGUG [Fam2.2 aminoacylation ribozyme variant] | 30 | 3.03 | 4.5 | 2.91 | 5.43 | 4.16
44 | AUUCUUCAAACAAUCGGUCUG [Fam1A.1 aminoacylation ribozyme variant] | 1.66 | 0.672 | 0.63 | 0.663 | 0.682 | 1.27
45 | AUUGACCCAGGUCAUCGGGUG [Fam2.2 aminoacylation ribozyme variant] | 34.9 | 3.6 | 4.74 | 3.31 | 6.54 | 5.64
46 | AUUGACCUAAGUCAUCGGGUG [Fam2.2 aminoacylation ribozyme variant] | 56.8 | 5.64 | 7.6 | 5.26 | 12.1 | 9.4
47 | AUUGACCUAGGACAUCGGGUG [Fam2.2 aminoacylation ribozyme variant] | 19.3 | 3.72 | 4.19 | 3.53 | 4.56 | 4.97
48 | AUUGACCUAGGUAAUCGGGUG [Fam2.2 aminoacylation ribozyme variant] | 15 | 3.19 | 2.92 | 3 | 3.86 | 3.73
49 | AUUGACCUAGGUCAUAGGGUG [Fam2.2 aminoacylation ribozyme variant] | 1.72 | 1.58 | 1.27 | 1.46 | 1.61 | 1.81
50 | AUUGACCUAGGUCAUCCGGUG [Fam2.2 aminoacylation ribozyme variant] | 28.3 | 3.31 | 4.88 | 3.31 | 4.69 | 5.12
51 | AUUGACCUAGGUCAUCGGGUA [Fam2.2 aminoacylation ribozyme variant] | 355 | 20.4 | 47.1 | 16.7 | 59.5 | 31.5
